Laboratory results reported in patent US20230383006A1 (ADIENNE S A, published 2023).

How the values were obtained:
[1] = target: T1, Matrix 3 discontinuous CLIPS peptides covering residues 226 to 252 of human CD26 (human, peptides fixed on a CLIPS scaffold through thiol side chains of cysteines); test: CLIPS epitope mapping, discontinuous peptides, Matrix 3
T1 construct: A set of peptide constructs from this range; also called protruding loop of CD26
Excerpt: The epitopes recognized by the CDina26 antibody produced by hybridoma cell line deposited as PD 12002 have been identified by CLIPS™ Epitope Mapping technology. See, e.g., U.S. Pat. Nos. 7,863,239 and 7,972,993, the disclosures of which are herein incorporated by reference in their entirety. Briefly, CLIPS™ technology structurally fixes peptides into defined three-dimensional structures. […] The CLIPS™ reaction takes place between bromo groups of the CLIPS™ scaffold and thiol side chains of cysteines. The reaction is fast and specific under mild conditions (Timmerman et al., J. Mol. Recognit. 2007; 20: 283-29).
CLIPS™ library screening starts with the conversion of the human CD26 target protein into a library of overlapping peptide constructs, using a combinatorial matrix design. On a solid carrier, a matrix of linear peptides is synthesized, which are subsequently shaped into spatially defined CLIPS™ constructs. Constructs representing several parts of a discontinuous epitope in the correct conformation bind the antibody with high affinity, which is detected and quantified. […] Affinity information is used in iterative screens to define the sequence and conformation of epitopes in detail.

[2] = target: Purified recombinant human CD26 (rhDipeptidyl peptidase IV; Creative BioMart; CAT #DPP4-116H) (human, UniProt P27487 29-766); test: SPR (Biacore), 25 C, CDina26 captured on anti-IgG2b CM5 chip, human CD26 as analyte at 30-810 nM
Purified recombinant human CD26 (rhDipeptidyl peptidase IV; Creative BioMart; CAT #DPP4-116H), sequence (P27487 29-766 limits assumed): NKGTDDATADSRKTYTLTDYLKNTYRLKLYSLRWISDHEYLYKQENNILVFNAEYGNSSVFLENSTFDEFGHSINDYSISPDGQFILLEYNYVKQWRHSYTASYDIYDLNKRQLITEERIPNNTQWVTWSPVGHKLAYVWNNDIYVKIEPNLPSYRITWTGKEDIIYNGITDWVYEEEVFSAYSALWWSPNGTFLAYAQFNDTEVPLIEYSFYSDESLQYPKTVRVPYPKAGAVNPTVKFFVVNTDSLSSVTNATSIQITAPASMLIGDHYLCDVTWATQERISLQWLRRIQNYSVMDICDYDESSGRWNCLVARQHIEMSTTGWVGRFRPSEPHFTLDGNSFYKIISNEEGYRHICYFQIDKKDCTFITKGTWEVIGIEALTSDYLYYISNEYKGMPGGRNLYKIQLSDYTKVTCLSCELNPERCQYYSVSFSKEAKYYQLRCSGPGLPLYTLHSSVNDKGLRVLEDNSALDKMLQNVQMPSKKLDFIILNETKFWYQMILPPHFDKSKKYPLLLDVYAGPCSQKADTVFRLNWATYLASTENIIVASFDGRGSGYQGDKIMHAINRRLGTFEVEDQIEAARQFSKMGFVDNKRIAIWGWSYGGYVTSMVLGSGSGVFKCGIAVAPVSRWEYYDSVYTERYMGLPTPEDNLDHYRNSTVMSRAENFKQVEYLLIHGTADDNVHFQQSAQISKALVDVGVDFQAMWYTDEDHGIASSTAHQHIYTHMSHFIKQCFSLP
Description: Surface Plasmon Resonance system (Biacore®) was used to determine the affinity of CDina26 for human CD26 according to standard protocols. Affinity measurements were taken at 25° C., immobilizing on carboxymethyl dextran chip (CM5) 10.000 RU of an anti-IgG2b antibody (GE Healthcare, 22-0648-97 AC). CDina26 was prepared as stock in HBS-EP (0.01M HEPES, pH 7.4, 0.15M NaCl, 3 mM EDTA, 0.005% Surfactant P20) running buffer in a final concentration of 50 μg/ml, and for each experiment 2.000 RU were reversibly immobilized on the chip by injection with a flow of 10 μl/min in a period of 180 seconds.
Purified recombinant human CD26 (rhDipeptidyl peptidase IV; Creative BioMart; CAT #DPP4-116H) was prepared in a stock concentration of 5.8×10^-6 M. CD26 was injected at increasing concentrations of 30×10⁻⁹, 90×10⁻⁹ M, 270×10⁻⁹ M and 810×10⁻⁹ M. The CD26 samples were injected with a flow of 10μl/minute; with HBS-EP buffer used as running buffer. A typical recording included a 3 minutes period of injection of the CD26 followed by a period of 8 minutes of dissociation. The raw binding data was analyzed according to standard methods. CM5 chip with immobilized anti-IgG2b antibody was regenerated by injection of 10 mM Glycine-HCl pH 1.7 with a flow of injection of 20 μl/min and for a period of 60 seconds.

[3] = target: T2, Porcine Antigen (purchased from Sigma CAT #D 7052) (porcine, UniProt P22411 38-766, limits assumed); test: Biacore, CDina26 captured by an immobilized polyclonal anti-mouse Ig antibody, Porcine Ag injected in solution
T2 construct: Bought soluble protein; also called porcine CD26; Porcine Antigen (Ag)
T2 sequence (P22411 38-766 limits assumed): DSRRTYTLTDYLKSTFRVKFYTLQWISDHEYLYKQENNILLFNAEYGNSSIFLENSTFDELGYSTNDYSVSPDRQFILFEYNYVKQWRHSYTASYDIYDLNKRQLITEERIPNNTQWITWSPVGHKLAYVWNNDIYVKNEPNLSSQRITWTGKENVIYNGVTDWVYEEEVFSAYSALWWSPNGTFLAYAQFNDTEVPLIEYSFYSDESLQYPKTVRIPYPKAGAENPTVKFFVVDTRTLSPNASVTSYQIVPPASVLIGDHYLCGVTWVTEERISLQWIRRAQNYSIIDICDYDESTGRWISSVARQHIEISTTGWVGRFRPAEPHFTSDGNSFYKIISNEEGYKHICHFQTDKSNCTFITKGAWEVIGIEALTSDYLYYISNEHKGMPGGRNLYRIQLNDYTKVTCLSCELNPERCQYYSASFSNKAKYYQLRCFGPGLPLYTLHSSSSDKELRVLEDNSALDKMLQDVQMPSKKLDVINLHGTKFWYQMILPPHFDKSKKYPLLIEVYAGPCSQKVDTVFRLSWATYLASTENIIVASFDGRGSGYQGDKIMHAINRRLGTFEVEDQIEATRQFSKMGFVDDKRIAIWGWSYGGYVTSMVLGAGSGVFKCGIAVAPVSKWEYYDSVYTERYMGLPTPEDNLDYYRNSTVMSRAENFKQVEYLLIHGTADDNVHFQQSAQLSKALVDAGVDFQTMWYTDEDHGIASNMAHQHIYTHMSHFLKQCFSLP

[4] = target: T3, Human Antigen (purchased from Sigma CAT #D4943) (human, UniProt P27487 29-766, limits assumed); test: Biacore T100, CDina26 captured by immobilized polyclonal anti-mouse Ig antibody, human antigen injected at two concentrations
T3 construct: Bought soluble protein injected in solution in Biacore; also called human CD26; Human Antigen (Ag)
T3 sequence (P27487 29-766 limits assumed): as the sequence (P27487 29-766 limits assumed) above

[5] = target: T4, porcine CD26 expressed on minipig T lymphocytes (porcine (minipig), UniProt P22411 1-766); test: multiparametric flow cytometry on lymphocytes from minipig peripheral blood, CD3 (FL1-H) against CD26/CDina26 (FL2-H)
T4 construct: whole, on cells; Native CD26 on lymphocytes isolated from minipig peripheral blood; also called minipig CD26; Porcine Antigen as a transmembrane protein expressed on T lymphocytes
T4 sequence (P22411 whole entry): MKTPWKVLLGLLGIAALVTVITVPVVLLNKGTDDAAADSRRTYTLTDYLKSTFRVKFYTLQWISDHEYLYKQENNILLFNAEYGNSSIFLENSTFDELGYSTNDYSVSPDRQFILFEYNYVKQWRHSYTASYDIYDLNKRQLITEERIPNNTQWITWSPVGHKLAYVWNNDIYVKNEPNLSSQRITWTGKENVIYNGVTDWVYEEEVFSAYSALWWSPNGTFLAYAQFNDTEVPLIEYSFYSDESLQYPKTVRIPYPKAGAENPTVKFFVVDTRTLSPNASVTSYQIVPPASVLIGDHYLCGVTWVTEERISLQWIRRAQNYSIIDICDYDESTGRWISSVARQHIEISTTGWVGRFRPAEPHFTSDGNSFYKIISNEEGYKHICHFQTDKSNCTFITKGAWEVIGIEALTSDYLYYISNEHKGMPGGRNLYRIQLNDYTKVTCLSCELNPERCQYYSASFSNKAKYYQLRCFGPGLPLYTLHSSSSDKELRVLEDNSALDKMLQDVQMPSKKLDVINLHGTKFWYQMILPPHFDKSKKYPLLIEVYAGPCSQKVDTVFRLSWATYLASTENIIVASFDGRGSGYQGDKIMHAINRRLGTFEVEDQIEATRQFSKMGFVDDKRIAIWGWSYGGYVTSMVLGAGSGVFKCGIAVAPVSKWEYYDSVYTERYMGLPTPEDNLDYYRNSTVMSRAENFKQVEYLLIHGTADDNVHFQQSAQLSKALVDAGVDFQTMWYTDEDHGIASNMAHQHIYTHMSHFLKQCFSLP

T1 sequence (peptide, as listed by the source): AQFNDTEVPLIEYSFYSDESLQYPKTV

B1: CDina26 (antibody, mouse IgG2b, kappa, V domains shown)
VH: QVQLQQSGAELVKPGASVKLSCKASGYTFRSYDINWVRQRPEQGLEWIGWIFPGDGSTKYNEKFKGKATLTTDKSSSTAYMQLSRLTSEDSAVYFCARWTVVGPGYFDVWGAGTTVTVSS
VL: QIVLTQSPAIMSASPGEKVTITCSASSSVSYMNWFQQKPGTSPKLWIYSTSNLASGVPARFSGSGSGTSYSLTISRMEAEDAATYYCQQRSSYPNTFGGGTKLEIKR
notes: also called antibodies produced by the PD 12002 hybridoma cell line deposit; murine monoclonal antibody against CD26
B1 was tested, and the binding result [1] was “no binding”, the Kd [2] was 5.02 nM and the koff [2] was 0.000132 s⁻¹. For the same binder, the kon [2] was 26300 M⁻¹ s⁻¹, the binding result [3] was “no binding” and the koff [4] was 2.8e-05 s⁻¹. B1: no binding [5].
